Assay in all cases: ELISA
Common to all, as to settings: both partners purified
Background: In an ELISA, binding on a coated surface is turned into a signal by an enzyme label.

Assay [1] addresses pertussis toxin (PTx) holotoxin, native (Bordetella pertussis, strain  …, UniProt P04977;P04978;P04979;P0A3R5;P04981).
Assay [2] has as its target T1, PTx B oligomer (Bordetella pertussis, strain  …, UniProt P04978;P04979;P0A3R5;P04981).
Assay [3] addresses PTx S1-220 (soluble, truncated recombinant S1 subunit) (Bordetella pertussis, strain  …, UniProt P04977).
In assay [4] the target is pertussis toxin (native PTx holotoxin) (Bordetella pertussis, strain  …, UniProt P04977;P04978;P04979;P0A3R5;P04981).
Assay [5] deals with T1, PTx B oligomer. The source holds these as a separate data set.

This is an account of results in paper PMC5964521 (Infection and Immunity, 2018).

In general, EC50 refers to the midpoint of the concentration-response curve.

B1: biotinylated antibody E12, recombinant human IgG1 (antibody, V domains shown)
VH: EVQLVESGGDLVQPGGSLRLSCEASGFTFSNYAMSWVRQAPGKGLEWVSGTSGSGGSTYYADSVKGRFTLSRDNSKNTLYLQMNSLRAEDTAVYYCAKDREVLRFFLLPYYFDSWGQGTLVTVSS
VL: DIVMTQSPGSLSLSPGERATLSCRASQSVSSDYVAWYQQKPGQAPRLLIFDASTRATGIPDRFSGSGSGTDFTLTIGRLEPEDFAVYYCQQYGNSPLTFGGGAKVEIK
As for B1, the concentration giving a half-maximal response (EC50) in assay [1] amounted to 0.56 nM.

B2: antibody E12 (antibody, V domains shown)
VH: EVQLVESGGDLVQPGGSLRLSCEASGFTFSNYAMSWVRQAPGKGLEWVSGTSGSGGSTYYADSVKGRFTLSRDNSKNTLYLQMNSLRAEDTAVYYCAKDREVLRFFLLPYYFDSWGQGTLVTVSS
VL: DIVMTQSPGSLSLSPGERATLSCRASQSVSSDYVAWYQQKPGQAPRLLIFDASTRATGIPDRFSGSGSGTDFTLTIGRLEPEDFAVYYCQQYGNSPLTFGGGAKVEIK
For the molecule B2, the binding result in assay [2] is “no binding”. The EC50 amounted to 0.05 nM in assay [3] and 0.13 nM in assay [4].

B3: biotinylated antibody D8, recombinant human IgG1 (antibody, V domains shown)
VH: QITLRESGAEVTKPGSSVKVSCKASGGTFGSYGIRWVRQAPGQGLEWMGGIIPMFGTANYAQRFQGRVTITADKSTSTAYMELSSLKSEDTAVYYCARENSIVGANWFDPWGQGTLVTVSS
VL: EIVMTQSPSSLSASVGDRVTFTCRASQSISTYLNWYQQKPGKAPTLLIYAASTLRSGVPSRFSGSGSGTDFTLTISSLQPVDFATYFCQQSYSSPYTFGQGTTLEIK
With B3, in assay [1], the midpoint of the response, the EC50, lay at 0.76 nM.

B4: antibody D8 (antibody, V domains shown)
VH: QITLRESGAEVTKPGSSVKVSCKASGGTFGSYGIRWVRQAPGQGLEWMGGIIPMFGTANYAQRFQGRVTITADKSTSTAYMELSSLKSEDTAVYYCARENSIVGANWFDPWGQGTLVTVSS
VL: EIVMTQSPSSLSASVGDRVTFTCRASQSISTYLNWYQQKPGKAPTLLIYAASTLRSGVPSRFSGSGSGTDFTLTISSLQPVDFATYFCQQSYSSPYTFGQGTTLEIK
Regarding B4, the figures for the concentration for a half-maximal effect (EC50) in assay [5] and in assay [4] were 0.78 nM and 0.14 nM, respectively.

B5: biotinylated antibody H5, recombinant human IgG1 (antibody, V domains shown)
VH: QVQLVESGPGLVKPSETLSLTCTVSGASVSSGTYYWSWIRQPPGKGLEWIGYSYYTGSSDSNASLKSRVTLSIDTSRNLLSLKLTSVTAADTAVYYCARDRRKVRGVWAGYSGMDVWGPGTTVTVSS
VL: EIVMTQSPSSLSASVGDRVTITCQASQEITNYLNWYQQKPGKAPKLLIYDASHLETGVPSRFSGSGSGTDFSFTISSLQPEDIATYYCQQYDDFPWGGVTFGGGTKVEIK
In assay [1], B5 registered an EC50 of 0.06 nM.

B6: antibody H5 (antibody, V domains shown)
VH: QVQLVESGPGLVKPSETLSLTCTVSGASVSSGTYYWSWIRQPPGKGLEWIGYSYYTGSSDSNASLKSRVTLSIDTSRNLLSLKLTSVTAADTAVYYCARDRRKVRGVWAGYSGMDVWGPGTTVTVSS
VL: EIVMTQSPSSLSASVGDRVTITCQASQEITNYLNWYQQKPGKAPKLLIYDASHLETGVPSRFSGSGSGTDFSFTISSLQPEDIATYYCQQYDDFPWGGVTFGGGTKVEIK
As to B6, the EC50 in assay [5] turned out to be 0.11 nM; in assay [4], 0.02 nM.

B7: biotinylated antibody A12, recombinant human IgG1 (antibody, V domains shown)
VH: QVTLKESGGGLVKPGGSLRLSCAASGFTFTDYYMTWIRQAPGKGLEWVSCVGSSGTYTNYAQNVQGRFTISRDNAKNSLYLQMNSLRTEDTAVYYCARVTGSGNFYGSYHYYYMDVWGKGTMVTVSS
VL: EVVLTQSPATLSLSPGKKATLSCRASQSVSNYLAWYQQKPGQSPRLLIFDASKRAAGIPARFSGSGSGTDFTLTISSLEPEDFAVYYCQQRTNWLTFGGGTKVEIK
For B7, the response in assay [1] was half-maximal at 0.24 nM (EC50).

B8: antibody A12 (antibody, V domains shown)
VH: QVTLKESGGGLVKPGGSLRLSCAASGFTFTDYYMTWIRQAPGKGLEWVSCVGSSGTYTNYAQNVQGRFTISRDNAKNSLYLQMNSLRTEDTAVYYCARVTGSGNFYGSYHYYYMDVWGKGTMVTVSS
VL: EVVLTQSPATLSLSPGKKATLSCRASQSVSNYLAWYQQKPGQSPRLLIFDASKRAAGIPARFSGSGSGTDFTLTISSLEPEDFAVYYCQQRTNWLTFGGGTKVEIK
Turning to B8, the binding result in assay [2] was “no binding”. The molecule also came in with an EC50 in assay [4] of 0.1 nM.

B9: biotinylated antibody A8, recombinant human IgG1 (antibody, V domains shown)
VH: QVQLVESGAEVKKPGASVKVSCKTSGYTFSSYGITWVRQAPGQGLEWMGWISAYNGDTNYADSVKGRVTMTTDTSTSTAYMELRSLRFDDTAVYYCARDTSFAPSGYGFDISGQGTTVTVSS
VL: DIQLTQSPSSLSASVGDRVTITCRASQGIRHELAWYQQKPGKAPQRLIYAASSLQSGVPSRFSGSGSGTDFTLTINSLQPEDSATYYCLQVNSYPRTFGQGTRVDIK
For the molecule B9, in assay [1], the EC50 was 0.65 nM.

B10: antibody A8 (antibody, V domains shown)
VH: QVQLVESGAEVKKPGASVKVSCKTSGYTFSSYGITWVRQAPGQGLEWMGWISAYNGDTNYADSVKGRVTMTTDTSTSTAYMELRSLRFDDTAVYYCARDTSFAPSGYGFDISGQGTTVTVSS
VL: DIQLTQSPSSLSASVGDRVTITCRASQGIRHELAWYQQKPGKAPQRLIYAASSLQSGVPSRFSGSGSGTDFTLTINSLQPEDSATYYCLQVNSYPRTFGQGTRVDIK
On to B10, for which, in assay [2], the binding result is listed as “no binding”. In addition, the concentration giving a half-maximal response (EC50) in assay [3] was 0.02 nM; in assay [4], 0.15 nM.
